These results are taken from patent publication US20090253131A1, “HYBRID FUSION REPORTER AND USES THEREOF” (Promega Corporation, priority 2007, published 2009).

Assay in all cases: cell-based or functional assay
The target in test [1] is hRL (92-311)-FKBP (Renilla) (UniProt P27652).
Test [2] shares this target. This is another data set of the same source.
Test [3] addresses FKBP-hRL (112-311) (Renilla) (UniProt P62942).
Test [4] has as its target hRL (112-311)-FKBP (Renilla) (UniProt P27652).
The target is the same in test [5]. This is another data set of the same source.
Test [6] addresses Rluc8 (92-311)-FKBP (Renilla) (UniProt P27652).
Test [7] has as its target Rluc8 (112-311)-FKBP (Renilla) (UniProt P27652).
Test [8] addresses FKBP-hRL (92-311) (Renilla) (UniProt P62942).
The target is the same in test [9]. This is another data set of the same source.
Test [10] has as its target FKBP-hRL (112-311) (Renilla) (UniProt P62942). The source holds these as a separate data set.

Like-named read-outs stand apart in the source and are kept apart here.

Sequence of FKBP-hRL (112-311) (Renilla) (P62942 other isoform, or with tags, fused parts or gaps): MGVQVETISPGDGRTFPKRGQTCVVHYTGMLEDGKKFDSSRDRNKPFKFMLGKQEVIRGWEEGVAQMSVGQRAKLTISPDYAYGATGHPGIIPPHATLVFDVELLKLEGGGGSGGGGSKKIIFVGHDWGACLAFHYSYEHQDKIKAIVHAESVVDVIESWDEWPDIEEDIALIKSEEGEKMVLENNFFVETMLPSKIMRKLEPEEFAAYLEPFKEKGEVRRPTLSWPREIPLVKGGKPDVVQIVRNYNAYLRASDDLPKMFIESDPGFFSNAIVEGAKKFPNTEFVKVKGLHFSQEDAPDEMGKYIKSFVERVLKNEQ
Sequence of FKBP-hRL (92-311) (Renilla) (P62942 other isoform, or with tags, fused parts or gaps): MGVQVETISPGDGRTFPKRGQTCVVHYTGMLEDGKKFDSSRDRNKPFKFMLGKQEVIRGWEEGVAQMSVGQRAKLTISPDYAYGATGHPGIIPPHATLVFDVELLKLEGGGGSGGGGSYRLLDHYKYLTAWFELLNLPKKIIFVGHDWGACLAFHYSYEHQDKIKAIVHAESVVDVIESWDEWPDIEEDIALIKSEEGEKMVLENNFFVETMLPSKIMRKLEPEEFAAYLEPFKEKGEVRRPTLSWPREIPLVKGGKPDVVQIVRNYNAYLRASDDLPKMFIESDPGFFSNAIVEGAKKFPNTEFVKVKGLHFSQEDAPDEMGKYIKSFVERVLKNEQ
Sequence of hRL (1-111)-FRB (P27652 other isoform, or with tags, fused parts or gaps): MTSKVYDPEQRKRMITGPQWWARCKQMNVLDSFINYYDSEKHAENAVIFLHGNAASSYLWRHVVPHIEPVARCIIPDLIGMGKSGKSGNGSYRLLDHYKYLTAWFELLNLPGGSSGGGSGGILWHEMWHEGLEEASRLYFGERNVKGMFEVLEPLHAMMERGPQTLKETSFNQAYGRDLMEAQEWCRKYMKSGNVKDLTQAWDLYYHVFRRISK
Sequence of hRL (92-311)-FKBP (Renilla) (P27652 other isoform, or with tags, fused parts or gaps): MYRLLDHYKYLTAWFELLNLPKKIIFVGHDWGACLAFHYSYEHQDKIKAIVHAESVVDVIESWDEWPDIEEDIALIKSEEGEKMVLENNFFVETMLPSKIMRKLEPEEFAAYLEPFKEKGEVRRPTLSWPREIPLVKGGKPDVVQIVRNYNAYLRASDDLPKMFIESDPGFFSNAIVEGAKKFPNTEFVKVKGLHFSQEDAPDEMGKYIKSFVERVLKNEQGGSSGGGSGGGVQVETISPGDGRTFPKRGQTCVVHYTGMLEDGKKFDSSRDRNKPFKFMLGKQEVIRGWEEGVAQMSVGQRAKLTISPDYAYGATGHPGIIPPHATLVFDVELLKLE
Sequence of hRL (112-311)-FKBP (Renilla) (P27652 other isoform, or with tags, fused parts or gaps): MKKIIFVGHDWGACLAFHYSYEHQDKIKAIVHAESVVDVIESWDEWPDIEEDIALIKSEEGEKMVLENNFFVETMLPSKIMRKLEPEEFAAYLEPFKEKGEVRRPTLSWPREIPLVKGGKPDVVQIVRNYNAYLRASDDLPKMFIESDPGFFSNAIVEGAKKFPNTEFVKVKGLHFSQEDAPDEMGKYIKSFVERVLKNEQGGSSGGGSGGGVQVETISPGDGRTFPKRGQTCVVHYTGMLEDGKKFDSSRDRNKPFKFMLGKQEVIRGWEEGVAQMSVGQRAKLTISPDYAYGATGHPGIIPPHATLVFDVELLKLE
Sequence of hRL (1-91)-FRB (P27652 other isoform, or with tags, fused parts or gaps): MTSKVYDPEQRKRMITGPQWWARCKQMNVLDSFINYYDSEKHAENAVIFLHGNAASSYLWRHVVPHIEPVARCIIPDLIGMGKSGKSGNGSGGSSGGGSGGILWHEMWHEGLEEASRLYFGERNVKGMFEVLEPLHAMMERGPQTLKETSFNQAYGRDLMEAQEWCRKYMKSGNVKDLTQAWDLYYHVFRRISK
Sequence of Rluc8 (1-111)-FRB (P27652 other isoform, or with tags, fused parts or gaps): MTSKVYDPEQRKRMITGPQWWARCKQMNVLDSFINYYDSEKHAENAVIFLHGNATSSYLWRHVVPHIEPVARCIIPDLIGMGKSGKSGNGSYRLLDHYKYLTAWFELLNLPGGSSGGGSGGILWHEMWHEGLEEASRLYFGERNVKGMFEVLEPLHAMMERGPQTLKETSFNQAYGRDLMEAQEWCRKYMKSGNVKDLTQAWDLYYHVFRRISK
Sequence of Rluc8 (1-91)-FRB (P27652 other isoform, or with tags, fused parts or gaps): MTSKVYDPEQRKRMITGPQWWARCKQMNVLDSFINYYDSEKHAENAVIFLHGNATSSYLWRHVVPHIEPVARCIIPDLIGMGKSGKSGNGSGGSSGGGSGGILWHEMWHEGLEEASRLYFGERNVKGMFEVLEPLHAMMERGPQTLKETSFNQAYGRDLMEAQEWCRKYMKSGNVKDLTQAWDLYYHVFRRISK
Sequence of Rluc8 (92-311)-FKBP (Renilla) (P27652 other isoform, or with tags, fused parts or gaps): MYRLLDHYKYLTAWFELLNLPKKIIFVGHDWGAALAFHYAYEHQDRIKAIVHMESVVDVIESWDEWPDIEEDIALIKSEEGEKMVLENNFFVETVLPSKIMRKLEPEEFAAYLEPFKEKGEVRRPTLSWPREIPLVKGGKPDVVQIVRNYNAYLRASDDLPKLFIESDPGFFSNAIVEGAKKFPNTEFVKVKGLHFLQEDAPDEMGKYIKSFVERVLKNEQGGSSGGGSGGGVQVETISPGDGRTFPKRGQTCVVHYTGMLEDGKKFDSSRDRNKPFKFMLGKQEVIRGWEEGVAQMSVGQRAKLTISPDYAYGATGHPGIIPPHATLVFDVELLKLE
Sequence of Rluc8 (112-311)-FKBP (Renilla) (P27652 other isoform, or with tags, fused parts or gaps): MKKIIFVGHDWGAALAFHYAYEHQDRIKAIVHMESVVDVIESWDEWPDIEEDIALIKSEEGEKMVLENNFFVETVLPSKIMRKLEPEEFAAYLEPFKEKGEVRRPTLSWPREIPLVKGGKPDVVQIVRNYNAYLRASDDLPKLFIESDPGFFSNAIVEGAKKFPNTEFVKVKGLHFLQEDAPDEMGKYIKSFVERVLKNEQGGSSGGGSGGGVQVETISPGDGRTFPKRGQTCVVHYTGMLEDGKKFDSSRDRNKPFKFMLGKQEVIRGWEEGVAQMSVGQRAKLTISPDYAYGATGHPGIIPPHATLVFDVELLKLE

On to “FRB-hRL (1-91) (from UniProt P42345 2021-2113; P27652 1-91)”, for which the Renilla luciferase activity, +rapamycin against no rapamycin amounted to 134 fold in [1] and 10.4 fold in test [2]. Consider “FRB-hRL (1-111) (from UniProt P42345 2021-2113; P27652 1-111)”, for which the Renilla luciferase activity, +rapamycin against no rapamycin was 5.3 fold in test [3], 46 fold in test [4] and 51 fold in test [5]. Take “Rluc8 (1-91)-FRB (from UniProt P27652 1-91; P42345 2021-2113)”: the Renilla luciferase activity, +rapamycin against no rapamycin in [6] came out at 4 fold. As for “Rluc8 (1-111)-FRB (from UniProt P27652 1-111; P42345 2021-2113)”, in [7], the Renilla luciferase activity, +rapamycin against no rapamycin amounted to 17 fold.

Consider “hRL (1-91)-FRB (from UniProt P27652 1-91; P42345 2021-2113)”, for which the Renilla luciferase activity, +rapamycin against no rapamycin in test [8] came to 8.6 fold; in test [9], 13.5 fold. For the substance “hRL (1-111)-FRB (from UniProt P27652 1-111; P42345 2021-2113)”, the Renilla luciferase activity, +rapamycin against no rapamycin in test [3] amounted to 81 fold; in test [10], 114 fold.
